Data on 5 molecules can be found in publication PMC5159498 (2016).

B1: IQGAP1 GRD1-RGCT wild type (aa 877-1558) (domain or fragment)
chain: DQSDQDFQEELDLMKMREEVITLIRSNQQLENDLNLMDIKIGLLVKNKITLQDVVSHSKKLTKKNKEQLSDMMMINKQKGGLKALSKEKREKLEAYQHLFYLLQTNPTYLAKLIFQMPQNKSTKFMDSVIFTLYNYASNQREEYLLLRLFKTALQEEIKSKVDQIQEIVTGNPTVIKMVVSFNRGARGQNALRQILAPVVKEIMDDKSLNIKTDPVDIYKSWVNQMESQTGEASKLPYDVTPEQALAHEEVKTRLDSSIRNMRAVTDKFLSAIVSSVDKIPYGMRFIAKVLKDSLHEKFPDAGEDELLKIIGNLLYYRYMNPAIVAPDAFDIIDLSAGGQLTTDQRRNLGSIAKMLQHAASNKMFLGDNAHLSIINEYLSQSYQKFRRFFQTACDVPELQDKFNVDEYSDLVTLTKPVIYISIGEIINTHTLLLDHQDAIAPEHNDPIHELLDDLGEVPTIESLIGESSGNLNDPNKEALAKTEVSLTLTNKFDVPGDENAEMDARTILLNTKRLIVDVIRFQPGETLTEILETPATSEQEAEHQRAMQRRAIRDAKTPDKMKKSKSVKEDSNLTLQEKKEKIQTGLKKLTELGTVDPKNKYQELINDIARDIRNQRRYRQRRKAELVKLQQTYAALNSKATFYGEQVDYYKSYIKTCLDNLASKGKVSKKPREMKGKKSKK
B2: IQGAP1 GRD1-RGCT S1441E (aa 877-1558) (domain or fragment)
chain: B1 chain with S565E
B3: IQGAP1 GRD1-RGCT S1443E (aa 877-1558) (domain or fragment)
chain: B1 chain with S567E
B4: IQGAP1 GRD1-CT (aa 863-1657) (domain or fragment)
chain: DPPMVVVRKFVHLLDQSDQDFQEELDLMKMREEVITLIRSNQQLENDLNLMDIKIGLLVKNKITLQDVVSHSKKLTKKNKEQLSDMMMINKQKGGLKALSKEKREKLEAYQHLFYLLQTNPTYLAKLIFQMPQNKSTKFMDSVIFTLYNYASNQREEYLLLRLFKTALQEEIKSKVDQIQEIVTGNPTVIKMVVSFNRGARGQNALRQILAPVVKEIMDDKSLNIKTDPVDIYKSWVNQMESQTGEASKLPYDVTPEQALAHEEVKTRLDSSIRNMRAVTDKFLSAIVSSVDKIPYGMRFIAKVLKDSLHEKFPDAGEDELLKIIGNLLYYRYMNPAIVAPDAFDIIDLSAGGQLTTDQRRNLGSIAKMLQHAASNKMFLGDNAHLSIINEYLSQSYQKFRRFFQTACDVPELQDKFNVDEYSDLVTLTKPVIYISIGEIINTHTLLLDHQDAIAPEHNDPIHELLDDLGEVPTIESLIGESSGNLNDPNKEALAKTEVSLTLTNKFDVPGDENAEMDARTILLNTKRLIVDVIRFQPGETLTEILETPATSEQEAEHQRAMQRRAIRDAKTPDKMKKSKSVKEDSNLTLQEKKEKIQTGLKKLTELGTVDPKNKYQELINDIARDIRNQRRYRQRRKAELVKLQQTYAALNSKATFYGEQVDYYKSYIKTCLDNLASKGKVSKKPREMKGKKSKKISLKYTAARLHEKGVLLEIEDLQVNQFKNVIFEISPTEEVGDFEVKAKFMGVQMETFMLHYQDLLQLQYEGVAVMKLFDRAKVNVNLLIFLLNKKFYGK
B5: CDC42 (aa 1-178) (domain or fragment)
chain: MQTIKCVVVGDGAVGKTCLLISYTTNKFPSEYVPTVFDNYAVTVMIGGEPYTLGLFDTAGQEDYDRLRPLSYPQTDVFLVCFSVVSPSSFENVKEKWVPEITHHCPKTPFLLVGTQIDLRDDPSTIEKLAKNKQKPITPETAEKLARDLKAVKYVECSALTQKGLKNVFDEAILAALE

One test deals with RAC1 (aa 1-179) (human, UniProt P63000 1-179). Kind of test: mGppNHp-bound RAC1.
The target of the test “CDC42 (aa 1-178)” is B5. Description: mGppNHp-bound CDC42.
The next test addresses CDC42 Q61L (human, UniProt P60953 1-178, Q61L). Description: tGppNHp-bound CDC42 Q61L.
The target in test [1] is B3. Description: mGppNHp-bound CDC42.
For test [2], the target named is B2. Kind of test: mGppNHp-bound CDC42.

Substitutions are numbered along the chain they refer to. Names and notes keep the numbering of the source.

CDC42 (aa 1-178), sequence (P60953 1-178): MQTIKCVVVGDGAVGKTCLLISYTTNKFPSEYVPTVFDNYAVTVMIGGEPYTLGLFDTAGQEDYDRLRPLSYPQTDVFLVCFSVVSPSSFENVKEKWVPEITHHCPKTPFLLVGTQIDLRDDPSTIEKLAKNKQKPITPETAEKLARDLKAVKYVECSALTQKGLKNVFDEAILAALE
CDC42 Q61L, sequence (P60953 1-178 Q61L): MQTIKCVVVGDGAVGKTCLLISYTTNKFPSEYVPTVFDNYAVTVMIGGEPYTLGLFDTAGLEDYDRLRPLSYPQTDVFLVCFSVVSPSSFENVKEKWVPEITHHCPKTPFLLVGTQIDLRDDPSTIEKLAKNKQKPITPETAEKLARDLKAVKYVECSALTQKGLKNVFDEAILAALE

The term koff denotes the first-order rate constant of dissociation. Low readings indicate a long-lived complex, high ones a short-lived complex. With B1, the off-rate (koff) with RAC1 (aa 1-179) is 2.78 s⁻¹; with CDC42 (aa 1-178), 2.23 s⁻¹.
The molecule B2 yielded a koff in the test with RAC1 (aa 1-179) of 2.71 s⁻¹.
On the same count and under the same terms, to B3 belongs 2.82 s⁻¹.
Regarding B4, the off-rate constant (koff) turned out to be 0.66 s⁻¹ in the test with RAC1 (aa 1-179), 0.39 s⁻¹ in the test with CDC42 (aa 1-178) and 0.073 s⁻¹ with CDC42 Q61L.
Turning to B5, the koff in test [1] was 2.32 s⁻¹; in test [2] it was 1.83 s⁻¹.
